Data from article PMC9278117.

Legend:
[1] = molecular target: CB6 monoclonal antibody; assay: BLI
[2] = molecular target: 4A8 monoclonal antibody; assay: BLI

| Substance | Kd [1] [nM] | Kd [2] [nM] |
| --- | --- | --- |
| S1-mi3 NP (from UniProt P0DTC2 16-685) (complex) | < 0.001 | < 0.001 |
| S1-ferritin NP (from UniProt P0DTC2 16-685) (complex) | < 0.001 | 1.18 |
| S1-I53-50 NP (from UniProt P0DTC2 16-685) (complex) | < 0.001 | 0.0736 |
